From patent publication US20250163183A1 (COAGULANT THERAPEUTICS, published 2025) come the findings set out here.

For experiment [1], the target named is T1, human protein C (PC) zymogen (human, UniProt P04070 43-197; P04070 200-461).
T1 construct: Bought
Description: ELISA screen, PC-coated wells, OD450, n=2. On the technique in general: An ELISA detects its analyte on a solid surface through an enzyme-linked reagent.

The target in experiment [2] is T2, human APC-PPACK (active site-blocked APC) (human, UniProt P04070 43-461, active site bound by the tripeptide inhibitor Phe-Pro-Arg-chloromethylketone (PPACK)).
T2 construct: Bought (Haematologic Technologies)
T2 sequence (P04070 other isoform, or with tags, fused parts or gaps): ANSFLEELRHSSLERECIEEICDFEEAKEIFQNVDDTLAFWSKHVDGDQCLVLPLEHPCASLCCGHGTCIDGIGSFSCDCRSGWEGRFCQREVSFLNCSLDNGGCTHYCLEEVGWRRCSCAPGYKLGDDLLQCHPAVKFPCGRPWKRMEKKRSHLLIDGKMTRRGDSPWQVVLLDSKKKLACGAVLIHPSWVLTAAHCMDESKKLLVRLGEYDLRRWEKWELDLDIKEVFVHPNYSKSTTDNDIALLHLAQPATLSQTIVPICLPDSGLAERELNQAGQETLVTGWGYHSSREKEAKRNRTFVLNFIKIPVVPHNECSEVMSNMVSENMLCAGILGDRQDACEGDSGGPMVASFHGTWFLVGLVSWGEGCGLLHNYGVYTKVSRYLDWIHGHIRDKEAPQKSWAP
Kind of experiment: ELISA.

T1 sequence (P04070 43-197, chain 1 of 2): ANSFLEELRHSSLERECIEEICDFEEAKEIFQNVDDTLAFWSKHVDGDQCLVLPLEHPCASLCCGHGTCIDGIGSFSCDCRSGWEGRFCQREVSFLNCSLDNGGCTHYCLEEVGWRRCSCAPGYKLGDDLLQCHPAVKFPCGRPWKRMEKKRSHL
T1 sequence (P04070 200-461, chain 2 of 2): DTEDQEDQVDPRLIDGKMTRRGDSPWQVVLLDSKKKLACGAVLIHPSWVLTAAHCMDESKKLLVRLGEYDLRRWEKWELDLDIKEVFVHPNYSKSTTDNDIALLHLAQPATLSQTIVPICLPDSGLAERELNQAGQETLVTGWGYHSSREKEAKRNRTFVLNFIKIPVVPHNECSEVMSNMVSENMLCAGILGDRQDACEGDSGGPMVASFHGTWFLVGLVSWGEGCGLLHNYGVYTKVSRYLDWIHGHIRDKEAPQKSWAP

B1: SR16983-R3-P2-D01 (VHH)
VHH: EVQLVESGGGLVQAGGSLRLSCAASGFTFSTKWMYWVRQGPGKGLEWVSTIDASGGSTYYADSVKGRFTISRDNTEKKVYLQMNSLESADTAVYYCARSAGGQFRGRGTQVTVSS
Turning to B1, the binding result in experiment [1] is reported as “no binding”; in experiment [2] it was “binds”.

B2: SR16983-R3-P3-H05 (VHH)
VHH: QVQLVESGGGLVQPGRSLRLSCAASGFTFSTKWMYWVRQGPGKGLERVAAIDAGGGSTYYADSVKGRFTISRDNSENTVYLQMNSLESADTAVYYCARSEGGLFRGRGTQVTVSA
Consider B2, for which the binding result was “no binding” in experiment [1] and “binds” in experiment [2].

B3: SR16983-R3-P5-C09 (VHH)
VHH: QLQLVESGGGLVQPGGSLRLSCAASGFTFSTKWMYWVRQGPGKGLERVAAIDASGGSTYYADSVKGRFTISRDNSKNTLYLQMNSLESADTAVYYCARSEGGQFRGRGTQVTVSS
For B3, the binding result in experiment [1] is listed as “no binding”; in experiment [2], “binds”.

B4: SR16983-R2-P4-E06 (VHH)
VHH: QLQLVESGGDLVQAGGSLRLSCAASGFTLDDYAIGWFRQAPGKEREGVSCIASSDGSTYYADSVKGRFTISTDNAKNTVYLQMNSLKPEDTAVYYCARGGLLLPKPELFDSWGQGTQVTVSS
Turning to B4, the binding result in experiment [1] is “no binding”; in experiment [2], “binds”.

B5: SR16983-R3-P5-F04 (VHH)
VHH: QLQLVESGGGLVQAGGSLRLSCAASGFTLDDYAIGWFRQAPGKEREGVSCIASSDGSTYYADSVKGRFTISTDNAKNTVYLQMNSLKPEDTAVYYCARGGLLLPKPELFEYWGQGTQVTVSS
For B5, the binding result was “no binding” in experiment [1] and “binds” in experiment [2].

B6: SR16983-R2-P3-B05 (VHH)
VHH: QLQLVESGGGLVQPGGSLRLSCAASGRTVGSYVMGWFRQAPGKEREFLAANSRSTGNTVYADSVKGRFTISRDDAKNTLYLQMNSLKPEDTAVYYCATRASINYNYANWPYWGQGTQVTVSS
On to B6, for which the binding result in experiment [1] is recorded as “no binding”; in experiment [2], “binds”.

B7: SR16983-R4-P1-C05 (VHH)
VHH: QLQLVESGGGLVQAGGSLRLSCAASGRTFGSYVMGWFRQAPGKERAFVGAASRSTGTTVYLDSVKGRFTISRDDAKNTLYLQMNSLKPEDTAVYYCAARASINYNYANWPYWGQGTQVTVSS
With B7, the figures for the binding result in experiment [1] and in experiment [2] were “no binding” and “binds”, respectively.

B8: SR16983-R3-P3-E04 (VHH)
VHH: QVQLVESGGGLVQAGGSLRLSCAASGRTFGSYVMGWFRQAPGKEREFVAAASRSTGNTVYPDSVKGRFTISRDDAKNTLYLQMNSLKPEDTAVYYCAARASINYNYANWPYWGQGTQVTVSS
Turning to B8, the binding result in experiment [1] was “no binding”; in experiment [2], “binds”.

B9: SR16983-R2-P4-D07 (VHH)
VHH: QVQLVESGGGLVQAGGSLRLSCAASGRTIGSYVMGWFRQAPGKEREFVVAFSRSTGHISYADSVKGRFTISRDDAKNTLYLQMNSLKPEDTAVYYCAARASINYNYANWPYWGQGTQVTVSS
Consider B9, for which the binding result in experiment [1] was “no binding”; in experiment [2], “binds”.

B10: SR16983-R3-P5-F03 (VHH)
VHH: QVQLVESGGGLVQAGGSLRLSCAASGRTVGTYAIGWFRQAPGKEREFVAAFSRSTGNTVYPDSVKGRFTISRDDAKNTLYLQMNSLKPEDTAVYYCAARASINYNYANWPYWGQGTQVTVSS
As to B10, the binding result is “no binding” in experiment [1] and “binds” in experiment [2].

B11: SR16983-R3-P4-E06 (VHH)
VHH: QLQLVESGGGLVQAGGSLRLSCAASGRTVGSYAVAWFRQAPGKERELLAASSRSTGNTVYADSVKGRFTIARDDAKNTLYLQMNSLKPEDTAVYYCAARASINYNYANWPYWGQGTQVTVSS
For B11, the binding result is given as “no binding” in experiment [1] and “binds” in experiment [2].
